B1: TOR1AIP2 (parent)
chain: HHVADAYTSSQKVSPIQIDGAGRT

Variants of: B1
Assay: protein stability index of a GFP-peptide fusion (GPS, HEK-293T) (PSI 1-6); higher = more stable
Details: c terminus: a fixed tail appended
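Also: lentivirally expressed fusions sorted by FACS into six bins by GFP to DsRed ratio, PSI derived from sequencing read proportions per bin multiplied by bin number.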

Protein stability index of substitutions, site by site:
T8: Y 3.45; N 3.88; E 4.38; L 4.14; M 3.89; D 4.66; S 3.69; W 2.86; R 3.49; F 3.27; P 4.38; G 3.87; Q 3.85; A 4.09; K 3.49; H 4.14; I 2.82; V 3.3; C 2.78
A6: C 3.98; V 3.48; M 3.46; F 2.69; T 4.02; N 4.26; K 4.03; R 3.95; Y 3.32; P 4.3; Q 4.32; S 4.14; L 3.2; D 4.19; W 2.19; E 4.77; I 3.67; H 3.85; G 4.39
D5: E 2.73; R 3.6; N 3.33; S 2.72; Y 2.35; Q 2.93; K 3.19; V 2.7; F 2.24; A 2.63; C 2.46; L 2.44; P 3.54; W 4.17; T 3.68; M 2.48; G 3.97; I 2.5; H 2.38
A4: Y 4.04; I 3.01; F 3.42; K 3.86; H 3.43; G 4.25; E 4.43; P 2.34; S 3.84; M 4.01; D 4.76; C 2.84; N 4.17; R 3.95; T 2.27; L 3.99; V 3.39; W 3.57; Q 3.67
S9: D 4.04; Q 3.15; G 3.79; N 3.54; I 2.42; Y 3.78; C 1.95; F 2.9; L 3.28; E 3.11; T 2.82; H 3.77; M 3.52; W 2.65; K 4.43; V 1.62; R 3.75; A 2.91; P 2.58
Y7: F 2.73; M 4.7; V 4.62; I 4.75; T 4.98; N 4.89; R 4.43; D 4.67; K 4.65; W 2.12; G 4.6; L 4.55; H 4.84; Q 4.5; C 4.19; P 4.91; S 4.87; A 5.04; E 4.97
H1: P 3.85; S 4.3; W 3.68; Y 3.09; V 3.86; R 4.33; T 3.94; N 4.53; Q 4.15
H2: I 2.08; Y 3.4; W 2.96; A 4.01; K 4.32; E 4.74; S 4.08; R 3.67; Q 2.51; G 4.15; L 1.86; M 2.81; N 4.27; T 3.81; C 3.5; F 3.77; P 3.87; V 1.99; D 4.75
S10: E 3.98; A 3; D 4.33; C 2.96; G 3.81; F 2.95
V3: R 2.95; A 1.62; L 3.77; G 2.73; C 1.75; E 3.12; Q 2.63; I 4.2; W 2.42; M 2.92; Y 1.51; T 3.1; P 4.2; N 2.04; F 2.34; S 2.46; K 3.19; H 2.82; D 2.96

— the supplement of paper PMC10567573
